{"source": "patent US8337813B2", "about": "“Contrast agents” (Northwestern University, priority 2007, dated 2012)", "molecular_target": "T1, human recombinant MMP-7 (Homo sapiens, UniProt P09237)", "T1 sequence (P09237 95-267)": "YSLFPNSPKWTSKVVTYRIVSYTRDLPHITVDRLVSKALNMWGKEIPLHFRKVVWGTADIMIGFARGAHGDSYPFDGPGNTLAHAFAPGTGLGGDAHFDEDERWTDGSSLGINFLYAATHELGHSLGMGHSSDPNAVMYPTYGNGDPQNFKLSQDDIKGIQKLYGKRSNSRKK", "test": "Enzymatic cleavage by MMP-7, analysed by ESI-MS", "assay_type": "biochemical", "experimental": "During development of embodiments of the present invention, a 2 μL aliquot of human recombinant MMP-7 was thawed on ice, diluted to 50 μL with assay buffer containing 1 mM APMA, and incubated for 1 hour at 37° C. to activate the enzyme. To the activated enzyme solution was added 1 μL of a 20 mM solution of gadolinium(III)-diethylenetriaminepentaacetic acid-Ala-Pro-Leu-Ala-Leu-Trp-Ala-PEG3-Ala. The solution was incubated at 37° C. for 24 hours after which 10 μL was dissolved in 50 μL MeOH for analysis by ESI-MS.\n1542.75; found negative mode 771.60, (m/2)]", "note": "Non-standard residues stand in square brackets, D forms with d. Primed or numbered codes have the meaning given here. No end group written: not given here. *: point of attachment. DTPA′ = diethylenetriaminepentaacetic acid (Gd(III) complex) N-cap, O=C([O-])CN(CCN(CC(=O)[O-])CC(=O)[O-])CCN(CC(=O)[O-])CC(=O)*.[Gd+3]; PEG3′ = not defined here"}
{"substance": "Gadolinium(III)-diethylenetriaminepentaacetic Acid-Ala-Pro-Leu-Ala-Leu-Trp-Ala-PEG3-Ala ({DTPA′}-APLALWA[PEG3′]A; also: Gd(III) complexed by DTPA)", "values": [{"measurement": "cleavage by MMP-7 (ESI-MS)", "setting": "activated MMP-7, 37° C., 24 hours", "value": "revealed a peak corresponding to the MMP-7 cleavage fragment Leu-Trp-Ala-PEG3-Ala"}, {"measurement": "ESI-MS of control solution lacking MMP-7", "setting": "no MMP-7", "value": "revealed only the expected uncleaved"}]}
